Where two headings read alike, the source gives them in different places. No end group written: not given here. *: point of attachment. FITC = O=C1OC2(c3ccc(O)cc3Oc3cc(O)ccc32)c2ccc(NC(=S)*)cc21
Key:
[1] = target: T1, second R of YRELRLLK (RLLK); assay: on-chip single-molecule dynamic sequencing, example traces, time axis 0-600 min
T1 construct: also called parent peptide after cleavage to the second arginine
T1 peptide: RLLK

[2] = target: T2, RA peptide (XAKLDEESILKQK-FITC, X = R); assay: fluorescence polarization titration, 20 C
T2 construct: also called peptide with N-terminal arginine
T2 peptide: RAKLDEESILKQK(FITC)
Method: (§1) Binding affinity was measured by polarization using a labeled peptide. The polarization response and total intensity measurements were carried out at 20° C. on a microplate fluorometer with 480 nm excitation and 530 nm emission. […] Multiple analyses were performed at increasing recognizer concentration at a fixed concentration of a target peptide to obtain a titration curve. An equilibrium polarization response at each concentration was plotted and fit to calculate the KD.
(§2) Fluorescence polarization assays were performed with all candidates, and single point binding responses were measured at a fixed concentration of the binders (FIG. 13A). […] We carried out multiple polarization binding titration analysis at increasing concentration of binder protein, and the Kds were determined from the titration curves (FIG. 13B).

[3] = target: T3, HA peptide (XAKLDEESILKQK-FITC, X = H); assay: fluorescence polarization titration, 20 C
T3 construct: also called peptide with N-terminal histidine
T3 peptide: HAKLDEESILKQK(FITC)
Method: as §1, §2

[4] = target: T2, RA peptide (XAKLDEESILKQK-FITC, X = R); assay: fluorescence polarization titration, PS621 0-5000 nM
Method: as §1, §2

[5] = target: T4, QP1165 after cleavage to N-terminal alanine (AFLKQRVWK); assay: on-chip dynamic sequencing of QP1165, PS2132 run, trace Aperture=376215
T4 peptide: AFLKQRVWK

[6] = target: T4, QP1165 after cleavage to N-terminal …; assay: on-chip dynamic sequencing of QP1165, PS2123 run, trace Aperture=1168773
[7] = target: T4, QP1165 after cleavage to N-terminal …; assay: on-chip dynamic sequencing of QP1165, 500 nM PS2123 plus five recognizers, 62511 alignments
[8] = target: T4, QP1165 after cleavage to N-terminal …; assay: on-chip dynamic sequencing of QP1165, 500 nM PS1875 plus five recognizers, 7305 alignments
[9] = target: T4, QP1165 after cleavage to N-terminal …; assay: on-chip dynamic sequencing of QP1165, 500 nM PS2132 plus five recognizers, 36192 alignments
[10] = target: T4, QP1165 after cleavage to N-terminal …; assay: on-chip dynamic sequencing of QP1165, PS1875 run, trace Aperture=1311609
[11] = target: T4, QP1165 after cleavage to N-terminal …; assay: on-chip dynamic sequencing of QP1165, PS1875 run, trace Aperture=430641
[12] = target: T4, QP1165 after cleavage to N-terminal …; assay: on-chip dynamic sequencing of QP1165, PS2123 run, trace Aperture=501326
[13] = target: T4, QP1165 after cleavage to N-terminal …; assay: on-chip dynamic sequencing of QP1165, PS2121 run, trace Aperture=1683362
[14] = target: T4, QP1165 after cleavage to N-terminal …; assay: on-chip dynamic sequencing of QP1165, PS2132 run, trace Aperture=1826247
[15] = target: T4, QP1165 after cleavage to N-terminal …; assay: on-chip dynamic sequencing of QP1165, 500 nM PS2121 plus five recognizers, 15527 alignments
[16] = target: T4, QP1165 after cleavage to N-terminal …; assay: on-chip dynamic sequencing of QP1165, PS1875 run, trace Aperture=1353995
[17] = target: T4, QP1165 after cleavage to N-terminal …; assay: on-chip dynamic sequencing of QP1165, 500 nM PS1875 plus five recognizers, 11565 alignments
Method: (§3) The semiconductor chip was placed in the sequencing device and a chip check was performed to test electronic circuit function and to optimize laser coupling alignment. The chip was then removed from the device socket and the chip was washed twice with 50 μL of 70% isopropanol, followed by four washes with 30 μL of wash buffer (50 mM MOPS pH 8.0, 60 mM potassium acetate, 50 mM glucose, 20 mM magnesium acetate, and surfactant mix) through a flow cell attached to the chip. A second chip check was then performed. The laser was then blocked via an integrated software-controlled shutter, peptide complex was added to a final concentration of 1-10 nM and mixed thoroughly, and the chip was incubated for 15 min. The chip was then washed six times with wash buffer, followed by addition of an imaging solution (wash buffer with 5 mM Trolox and an oxygen scavenging system). The laser was unblocked and the occupancy percentage (target 10-30%, Poisson distributed) was recorded by acquiring a photobleaching signal from a fluorophore attached to the peptide complex during 5 min of laser illumination. […] Data was recorded for 15 min. The laser was then blocked briefly and aminopeptidases were added to the sequencing reaction via the flow cell and mixed thoroughly (final concentration 2-8 μM PhTET2 and/or 20-80 μM PhTET3, as indicated according to the experiment). The laser was then unblocked, and data was recorded for 10 hours. For all runs, 30 μL of mineral oil was added to fluid reservoirs at each port of the flow cell to prevent evaporation during the run.

[18] = target: T4, QP1165 after cleavage to N-terminal …; assay: on-chip dynamic sequencing of QP1165, 500 nM PS1875 plus five recognizers, 3369 alignments
[19] = target: T4, QP1165 after cleavage to N-terminal …; assay: on-chip dynamic sequencing of QP1165, PS2121 run, trace Aperture=740473
[20] = target: T4, QP1165 after cleavage to N-terminal …; assay: on-chip dynamic sequencing of QP1165, PS1875 run, trace Aperture=1377116
Method: as §3

[21] = target: T5, WA peptide (Octet assay of PS557 variants); assay: Octet (BLI), peptide on sensor, response after 200 s association
T5 construct: Peptide coated on the Octet sensor
Excerpt: (§4) In the high-throughput assay, Octet sensors are coated with the peptide of interest and dipped in buffer containing the purified protein. An approximation of relative binding can be obtained by comparing the response after 200 seconds for each protein. Each protein has approximately the same molecular mass and is used at the same concentration, so ranking the proteins by response level in this assay gives an approximation of which proteins have improved binding. Studying the on and off-rate can also give insight into the mechanism of binding.

[22] = target: T6, IA peptide (Octet assay of PS557 variants); assay: as above
T6 construct: Peptide coated on the Octet sensor
Excerpt: as §4

[23] = target: T7, MA peptide (Octet assay of PS557 variants); assay: as above
T7 construct: Peptide coated on the Octet sensor
Excerpt: as §4

[24] = target: T8, YA peptide (Octet assay of PS557 variants); assay: as above
T8 construct: Peptide coated on the Octet sensor
Excerpt: as §4

[25] = target: T9, FA peptide (Octet assay of PS557 variants); assay: as above
T9 construct: Peptide coated on the Octet sensor
Excerpt: as §4

[26] = target: T10, LA Peptide (fluorescence polarization); assay: fluorescence polarization, FITC peptide titrated with protein
T10 peptide: LAKLDEESILKQK(FITC)

[27] = target: T11, MA Peptide (fluorescence polarization); assay: as above
T11 peptide: MAKLDEESILKQK(FITC)

[28] = target: VA Peptide (fluorescence polarization) (FITC on the C-terminal lysine); assay: as above
[29] = target: T12, AA Peptide (fluorescence polarization), AAKLDEESILKQ{LYS(FITC)}; assay: as above
T12 peptide: AAKLDEESILKQK(FITC)

[30] = target: T13, LA peptide (Octet assay of PS557 variants); assay: Octet (BLI), peptide on sensor, response after 200 s association
T13 construct: Peptide coated on the Octet sensor
Excerpt: (§5) In the high-throughput assay, Octet sensors are coated with the peptide of interest and dipped in buffer containing the purified protein. […] Studying the on and off-rate can also give insight into the mechanism of binding.

[31] = target: T6, IA peptide (Octet assay of PS557 …); assay: as above; remark: listed apart in the source
Excerpt: as §5

[32] = target: T14, VA peptide (Octet assay of PS557 variants); assay: as above
T14 construct: Peptide coated on the Octet sensor
Excerpt: as §5

[33] = target: T7, MA peptide (Octet assay of PS557 …); assay: as above; remark: listed apart in the source
Excerpt: as §5

[34] = target: T15, AA peptide (Octet assay of PS557 variants); assay: as above
T15 construct: Peptide coated on the Octet sensor
Excerpt: as §5

[35] = target: T9, FA peptide (Octet assay of PS557 …); assay: as above; remark: listed apart in the source
Excerpt: as §5

B1: PS621 (other)
chain: MHSKFSHAGRICGAKFKVGEPIYRCKECSFDDTCVLCVNCFNPKDHTGHHVYTTICTEFNNGICDCGDKEAWNHTLFCKAEEG
notes: tag of the assay construct not specified; also called UBR protein from Kluyveromyces marxianus
B1 was tested, and the binding result [1] was “binds”, the Kd [2] was 475 nM and the Kd [3] was 6770 nM. It also gave a Kd [4] of 475 nM.

B2: PS1587 (designed binder)
single polypeptide, two PS1165 units in tandem: MGLENSLETLRFSISNLSMQTHAARMRTFMYWPSSVPVQPEQLASAGFYYVGRNDDVKCFCCDGGLRCWESGDDPWVEHAKWFPRCEFLIRMKGQEFVDEIQGRYPHLLEQLLSEAAAKEAAAKEAAAKMGLENSLETLRFSISNLSMQTHAARMRTFMYWPSSVPVQPEQLASAGFYYVGRNDDVKCFCCDGGLRCWESGDDPWVEHAKWFPRCEFLIRMKGQEFVDEIQGRYPHLLEQLLSG
notes: also called PS1587 (AST)
With B2 the “PD of a recognition segment in an example trace” value (“PD of a recognition segment” below) [5] was 0.32 s, the “PD of a recognition segment” value [6] was 0.43 s and the “IPD (interpulse duration)” value [7] was 17.4 s. The “PD (pulse duration)” value [7] was 0.7 s, the “IPD (interpulse duration)” value [8] was 15 s and the “PD (pulse duration)” value [8] was 0.66 s. For the same binder, the “IPD (interpulse duration)” value [9] was 16.1 s, the “PD (pulse duration)” value [9] was 0.62 s and the “PD of a recognition segment” value [10] was 1.26 s. For the same binder, the “PD of a recognition segment” value [11] was 0.64 s, the “PD of a recognition segment” value [12] was 0.39 s and the “PD of a recognition segment” value [13] was 2.53 s. For the same binder, the “PD of a recognition segment” value [14] was 0.64 s, the “IPD (interpulse duration)” value [15] was 16 s and the “PD (pulse duration)” value [15] was 0.72 s. The “PD of a recognition segment” value [16] was 0.87 s, the “IPD (interpulse duration)” value [17] was 17.2 s and the “PD (pulse duration)” value [17] was 0.72 s. The “IPD (interpulse duration)” value [18] was 14.7 s, the “PD (pulse duration)” value [18] was 0.76 s and the “PD of a recognition segment” value [19] was 0.75 s. The “PD of a recognition segment” value [20] was 0.75 s.

B3: PS852 (designed binder)
chain: MPTAASATESAIEDTPAPARPEVDGRTKPKHQPRYHVVLWDDDDHTYQYVVVMLRSLFGHPPERGYRLAKEMDTQGRVIVLTTTREHAELKRDQIHAFGYDRLLARSKGSMKASIEAEE
notes: Variant of PS557
With B3 the Octet response [21] was 0.0292 nm, the Octet response [22] was 9.38 nm and the Octet response [23] was 5.48 nm. It also gave an Octet response [24] of 0.177 nm, an Octet response [25] of 0.102 nm and a Kd [26] of 19 nM. The Kd [27] was 1140 nM, the Kd [28] was 142 nM and the Kd [29] was 5140 nM.

B4: PS857 (designed binder)
chain: MPTAASATESAIEDTPAPARPEVDGRTKPKRQPRYHVVLWDDDDHTYQYVVVMLQSLFGHPPERGYRMAKEMDTQGRVIVLTTTREHAELKRDQIHAFGYDRLLARSKGSMKASIEAEE
notes: Variant of PS557; also called N41D, V72M, L68M
With B4 the Kd [26] was 7 nM, the Kd [27] was 746 nM and the Kd [28] was 487 nM. It also gave a Kd [29] of 15000 nM.

B5: PS961 (designed binder)
chain: MPTAASATESAIEDTPAPARPEVDGRTKPKRQPRYHVVLWDDDDHTYQYVVVMLRSLFGHPPSRGYRMAKEMDTQGRVIVLTTTREHAELKRDQIHAFGRDRLLARSKGSMKASIEAEE
notes: Variant of PS557; also called N41D, V72M, Q55R, E63S, L68M, Y100R
B5 showed an Octet response [30] of 11.8 nm, an Octet response [31] of 11.5 nm and an Octet response [32] of 11.3 nm. The Octet response [33] was 9.26 nm, the Octet response [34] was 4.87 nm and the Octet response [35] was 2.05 nm. The Kd [27] was 143 nM and the Kd [29] was 3300 nM.

B6: PS824 (designed binder)
chain: MPTAASATESAFEDTPAPARPEVDGRTKPKRQPRYHVVLWDDDDHTYQYVVVMLRSLFGHPPERGYRLAKEMDTQGRVIVLTTTREHAELKRDQIHAFGYDRLLARSKGSMKASIEAEE
notes: Variant of PS557
With B6 the Octet response [21] was 0.165 nm, the Octet response [22] was 13.5 nm and the Octet response [23] was 9.5 nm. For the same binder, the Octet response [24] was 1.31 nm, the Octet response [25] was 0.673 nm and the Kd [26] was 10 nM. It also gave a Kd [27] of 648 nM, a Kd [28] of 205 nM and a Kd [29] of 6770 nM.

B7: PS963 (designed binder)
chain: MPTAASATESAIEDTPAPARPEVDGRTKPKRQPRYHVVLWDDDDHTYQYVVVMLRSLFGHPPARGYRLAKEMDTQGRVIVLTTTREHAELKRDQIHAFGRDRLLARSKGSMKASIEAEE
notes: Variant of PS557
Work on B7 yielded an Octet response [30] of 9.65 nm, an Octet response [31] of 10.2 nm and an Octet response [32] of 10.4 nm. The Octet response [33] was 8.4 nm, the Octet response [34] was 4.06 nm and the Octet response [35] was 2.25 nm.
